Entries after “also recorded” stand apart in the source; their conditions may differ.
How the values were obtained:
Format in all cases: cell-based
RORα = assay: Phosphorylation of RORα in HCT116 cells (immunoprecipitation / immunoblot with anti-phospho-Ser or anti-phospho-RORαS35 antibody); conditions: HCT116 cells, treatment alone
Experimental: (A) Schematic representation of RORα showing the location of the N-terminal domain (NTD), the DNA-binding domain (DBD), the hinge region, the ligand-binding domain (LBD), and the AF-2 domain. […] HEK293 cells were cotransfected with plasmids expressing each His-tagged RORα deletion construct and β-catenin. Whole cell extracts (left panel) and Ni^+-NTA-agarose pulldown materials (right panel) were analyzed by immunoblotting against anti-β-catenin IgG or anti-Xpress IgG. (C) Illustration of the structure of deletion fragments of RORα(SEQ ID NO:17). (D) Interaction of each RORα deletion construct with HisMax-β-catenin was assessed by Ni^+-NTA-agarose pulldown assay. […] The phosphorylated peptide samples were analyzed by LC-MS analysis. […] Immunoprecipitation assay was conducted with anti-Flag antibody, and the phosphorylated RORα was detected by immunoblot analysis with anti-phospho-Ser antibody. […] The reaction samples were subjected to 12% SDSPAGE, and phosphorylated RORα was detected by autoradiography. […] The fluorescence-conjugated secondary antibody was visualized using fluorescence microscopy, and nuclear staining with DAPI was shown.
(A) The specificity of the antibody raised against phosphorylated RORαS35 peptide (SEQ ID NO:18) was assessed by dot blot analysis. (B) Treatment of TPA increased phophorylated RORα on S35 site as assessed by immunoprecipitation with anti-phospho-RORαS35 antibody. […]

cyclin D1 promoter = assay: ChIP assay on the cyclin D1 promoter in HCT116 cells
Experimental: (A) The specificity of the antibody raised against phosphorylated RORαS35 peptide (SEQ ID NO:18) was assessed by dot blot analysis. (B) Treatment of TPA increased phophorylated RORα on S35 site as assessed by immunoprecipitation with anti-phospho-RORαS35 antibody. […] (D) Treatment of Go6976, a PKCα inhibitor, abolished TPA-dependent phosphorylation of RORα as assessed by immonoblotting with anti-phospho-RORαS35 antibody. (E) HCT116 cells were transfected with Flag-RORα WT, S35D, or S35A, and the cell extracts were immunoprecipitated with anti-Flag antibody followed by immunoblotting against anti-β-catenin antibody. (F) Coimmunoprecipitation assay of β-catenin with either RORαWT or S35A in HCT116 cells after treatment with TPA in the absence or presence of Go6976. (G) ChIP analysis on the cyclin D1 promoter after transfection with Flag-RORαWT, S35A, or S35D in HCT116 cells. (H) ChIP analysis on the cyclin D1 promoter in HCT116 cells after TPA treatment for indicated time. (I) ChIP assay was performed on the cyclin D1 promoter in the absence or presence of siRNA against PKCα with treatment of TPA for 90 min. (J) Real-time quantitative RT-PCR analysis of the cyclin D1 transcript in HCT116 cells in the presence of TPA for indicated time. (K) Knockdown effect of siRNA against RORα or PKCα was assessed in the expression of the cyclin D1 transcript in HCT116 cells.
(B) Cyclin D1 transcript was measured after introducing siRNAs against RORα or PKCα in the presence of Wnt5a in HCT116 cells. (C) Real-time quantitative RTPCR analysis of the cyclin D1 transcript in HCT116 cells after introducing RORα, S35A, or S35D in the presence of Wnt5a. (D) […] on the cyclin D1 promoter with treatment of either TPA or Wnt5a in HCT116 cells. Occupancy of the cyclin D1 promoter by phosphorylated RORα, β-catenin, RNA polymerase II, H3K9me2, H3K4me2, CBP, pCAF, p300, or SMRT was indicated. (E) Transwell cell migration assay for RORα, RORαS35A, or RORαS35D-expressing HCT116 cells with treatment of Wnt5a. Values are represented as mean±s.d. for three independent experiments. (F) The anchorage-independent growth of HCT116 cells expressing RORα, RORαS35A, or RORαS35D in soft agar. Values are expressed as mean±SEM for two experiments in 6 place wells. Colonies were counted in 10 different fields and total colony number/well was calculated. Representative image is shown for each group.
The ChIP, two-step ChIP, and shRNA-coupled ChIP assays were conducted as previously described (Baek et al., 2002; Kim et al., 2005).

cyclin D1 transcript = assay: Real-time quantitative RT-PCR of the cyclin D1 transcript in HCT116 cells
Experimental: The abundance of mRNA was detected by an ABI prism 7300 system with SYBR Green (molecular probes). Primer pairs were designed to amplify 90-150 bp mRNA specific fragments, and confirmed to be unique products by melting curve analysis. The PCR conditions were 95° C. (5 min) and 40 cycles of 95° C. (30 s), 57° C. (30 s), and 72° C. (30 s).
The quantity of mRNA was calculated using the ΔΔCt method and normalized by using primers to detect β-actin or HPRT. All reactions were performed in triplicates.

PKCα = assay: Immunoblot against anti-phospho-PKCα antibody after Wnt5a treatment; conditions: anti-phospho-PKCα antibody (active form)
Excerpt: (§1) (A) Treatment of Wnt5a increased phosphorylated RORα and PKCα but decreased cyclin D1 expression as assessed by immunoblot analysis against each antibody.

cyclin D1 = assay: Immunoblot of cyclin D1 expression in colon cancer cells
Excerpt: as §1

[1] = test system: HCT116 colon cancer cells; assay: Transwell cell migration assay; conditions: Wnt5a 100 ng/ml pretreatment 2 hr, compared to non-treated cells
Experimental: HCT116 cells stably expressing RORα, RORαS35A, or RORαS35D were used in Transwell cell migration assays along with control cells. Transwell cell migration assay was conducted as previously described (Kim et al., 2006). Cultured cells were pretreated with Wnt5a (100 ng/ml) for 2 hr, and 2.5×10^4HCT116 cells were loaded onto the top of a 24-well Transwell chamber assay plate (BD Biosciences). Conditioned McCoy's 5A medium containing 15% fetal bovine serum was added to the bottom chamber as a chemoattractant. After 22 hr incubation, the cells that had migrated to the lower chamber of the filter were fixed with 100% methanol, stained with DAPI, and quantified by counting the total number of cells in four different fields. All experimental studies were performed according to the manufacturer's protocols. Values are expressed as means±standard deviations for at least three independent experiments.

B1: Wnt5a: a noncanonical Wnt ligand (protein, UniProt P41221 62-380, looked up)
Protein Wnt-5a: IIGAQPLCSQLAGLSQGQKKLCHLYQDHMQYIGEGAKTGIKECQYQFRHRRWNCSTVDNTSVFGRVMQIGSRETAFTYAVSAAGVVNAMSRACREGELSTCGCSRAARPKDLPRDWLWGGCGDNIDYGYRFAKEFVDARERERIHAKGSYESARILMNLHNNEAGRRTVYNLADVACKCHGVSGSCSLKTCWLQLADFRKVGDALKEKYDSAAAMRLNSRGKLVQVNSRFNSPTTQDLVYIDPSPDYCVRNESTGSLGTQGRLCNKTSEGMDGCELMCCGRGYDQFKTVQTERCHCKFHWCCYVKCKKCTEIVDQFVCK
**Q.** B1 was tested. Which “phosphorylation of RORα” value (RORα) did it give?
**A.** The value was “increased phosphorylation”.

**Q.** And the “RNA polymerase II recruitment on the cyclin D1 promoter” value (cyclin D1 promoter)?
**A.** Its value is “decreased”.

**Q.** What about the “methylation of histone H3K9 on the cyclin D1 promoter” value (cyclin D1 promoter) of the same molecule?
**A.** Its value is “increased methylation”.

**Q.** What about the “recruitment of CBP, p300, and pCAF coactivators to the cyclin D1 promoter” value (cyclin D1 promoter) of the same molecule?
**A.** The value was “significantly decreased”.

**Q.** What about the “recruitment of phosphorylated RORα on the cyclin D1 promoter” value (cyclin D1 promoter; anti-phospho-RORαS35 IgG) of the same molecule?
**A.** The value was “increased the recruitment”.

**Q.** What about the “cyclin D1 transcript” value (cyclin D1 transcript) of the same molecule?
**A.** Its value is “reduced”.

**Q.** And the “phosphorylation of PKCα” value (PKCα)?
**A.** The value was “increased phosphorylation”.

**Q.** And the “cyclin D1 expression” value (cyclin D1)?
**A.** Its value is “downregulation; also recorded: decreased”.

**Q.** What about the “migration of HCT116 colon cancer cells” value [1] of the same molecule?
**A.** Its value is “attenuated”.
